Reference: US8343490B2, “Monoclonal antibody SC104 and derivative thereof specifically binding to a sialyltetraosyl carbohydrate as a potential anti-tumor therapeutic agent” (Cephalon Australia Pty Ltd, priority 2004, dated 2013)
Where “and” joins values, the source holds several entries; their conditions need not be identical. Identical values can stand only once.

What was measured:
[1] = system: normal colonic extranuclear membranes; assay: ELISA on extranuclear membranes of normal colon; type: binding; conditions: one line per patient (1-7)
Procedure: • Tumour and normal membrane extract binding. Extranuclear extractions of colorectal and normal colonic membranes were produced and binding of SC104 was assayed by ELISA. Results

[2] = system: pan caspase in C170 cells; assay: Pan caspase activation (FITC-FMK-vad, flow cytometry); type: cell-based; conditions: 30 μg/ml, up to 6 hrs; FIG. 17
Procedure: Pan caspase activation. 2×10^5 colorectal C170 cells were exposed to 30 μg/ml of SC104 for up to 6 hrs and pan caspase FITC-FMK-vad (caspACE FITC-vad-FMK, Promega, catalogue number G7462) employed to establish caspase activation. The cells were analysed by flow cytometry. Controls included a negative control murine antibody and a Fas antibody at 100 ng/ml.

[3] = Blood group antigen ELISA, Lewis y; type: binding
Procedure: The Lewis ^y hapten and the type I and type II H blood group antigen (Sigma, Poole, Dorset) were dried microtitre plates by overnight incubation at 37° C. Binding of SC104 mab was assayed by ELISA as described above.

C170 cells = assay: C170 cell ELISA (hybridoma screening); type: binding
Procedure: ELISA. Antibody responses in the serum of immunised mice were assayed by titration using a standard non-competitive ELISA procedure. 96-well tissue culture plates were coated with C170 cells at a cell density of 5×10^5 cells/ml (100 μl/well) in 10% foetal bovine serum in RPMI 1640. The plates were incubated overnight at 37° C., 5% CO2, 95% air. The cells were then washed twice in phosphate buffered saline (pH7.3, PBS) prior to being fixed with 0.5% glutaraldehyde in PBS (10 min, 25° C., 100 μl/well). Remaining non-specific binding sites were blocked by incubation for 1 hr with 1% bovine serum albumin (fraction V from Sigma Chemicals Ltd.) in PBS. The cells were washed three times with a washing solution consisting of 0.05% Tween 20 in phosphate buffered saline before assaying post-boost serum for binding to C170 cells using a non-competitive sandwich ELISA. The pre-immunisation serum was used as a negative control. • Immunohistochemistry. Binding of hybridoma supernatants to tumour tissues was determined by indirect immunoperoxidase staining of frozen colorectal tumour sections. […] The bound antibody was detected with rabbit anti-mouse Ig conjugated to peroxidase (Dako Ltd., Bucks., UK) and following extensive washing the slides were stained with 0.05% diaminobenzidine and 0.01% H2O2 in 0.05M Tris-HCl, pH7.6 and counterstained with haematoxylin. […]

[4] = system: frozen normal tissue sections; assay: Immunohistochemistry staining of frozen normal tissue sections; type: binding, Human
Procedure: • Immunohistochemistry staining of normal and tumour tissues. Human tissues were obtained from an Inveresk approved supplier. Each tissue used was snap frozen in liquid nitrogen and stored at approximately −70° C. (±10° C.). Cryostat sections were cut and placed onto super frost plus slides. All tissue samples were treated with an antigen marker appropriate for each tissue in order to confirm the preservation of antigens in that tissue. The markers used were keratin for epithelial bearing tissues, CD45 for all lymphoid tissues, and desmin for all cardiac and skeletal muscle. Each tissue was examined from three unrelated donors. The method of staining employed was an indirect, 2 or 3-stage method, using secondary and tertiary antibodies together with an avidin-biotin-peroxidase complex. Endogenous peroxidase activity was blocked using hydrogen peroxide. Endogenous biotin was blocked by treating all tissue sections with a sequence of avidin-biotin. When a tertiary antibody was used, all tissue sections were treated with normal swine serum, which inhibits the binding of tertiary antibodies to the tissues. Validation of the immunohistochemical staining method was determined by staining on positive control tissues, the absence on negative controls and the effect of fixation on staining of control tissues. SC104 was tested against 6 donors of colon tumour and one of heart at concentrations of […]. Tissues were fixed in either acetone or neutral buffered formalin. Two samples of colon tumour stained well enough for use as a positive control and there was no staining in heart. […] The lowest concentration of SC104 giving the maximum staining intensity was 1 μg/ml and this concentration was used for subsequent work. Results

CaCO2 = assay: Inhibition of cell growth, MTS; type: cell-based; conditions: 30 μg/ml
Procedure: (§1) Inhibition of cell growth. 1×10^3 colorectal C170, C168, C146, CaCO2, Colo205, LoVo and HT29 cells were aliquoted into individual wells of a flat bottomed 96-well plate and left to adhere overnight at 37° C. The following day the cells were treated with: 10, 3, 1, 0.3 and 0 μg/ml of SC104 mab. As a negative control 791T/36 at concentrations 100, 30, 10, 3 and 0 μg/ml, was titrated against each concentration of drug used. Triplicate wells were used. Cells were left for 5 days at 37° C. prior to the addition of MTS reagent to each well and optical density reading at 490 nm.

C168 = assay: Inhibition of cell growth, MTS; type: cell-based; conditions: 30 μg/ml
Procedure: as §1

C170 = assay: Inhibition of cell growth, MTS; type: cell-based
Procedure: as §1

Colo205 = assay: Inhibition of cell growth, MTS; type: cell-based
Procedure: as §1

HT-29 = assay: Inhibition of cell growth, MTS; type: cell-based; conditions: 30 μg/ml
Procedure: as §1

C146 = assay: Inhibition of cell growth, MTS; type: cell-based; conditions: 30 μg/ml
Procedure: as §1

[5] = Normal Tissues: Large intestine
[6] = Normal Tissues: Parotid salivary gland
[7] = Normal Tissues: Small intestine
[8] = Normal Tissues: Urinary Bladder
[9] = concentrations in excess of 10 μg/ml, FIG. 20

B1: SC104: mouse IgG1 monoclonal antibody specific for a sialyltetraosyl carbohydrate, raised by immunisation with colorectal cancer cell lines (antibody, V domains shown)
VH: DVQLQESGPDLVKPSQSLSLTCTVTGYSITSGYSWHWVRQFPGNKMEWMGHIHFSGRPTYNPSLSSRISITRDTSKNQFLLQLKFVTTEDTSTYFCARKGKGSDDGLNYWGQGISVTVSS
VL: ENVLTQSPVIMSASPGEKVTMTCSASSSLSYIHWYQQKSRTSPKLWIYDTSNLASGVPGRFSGSGSGNSYSLTISSMEAEDVATYYCFQGSEYPLTFGGGTKLEMT
Binding of SC104 mab to extranuclear membranes: Normal colon [1]: 0.217 and 0.042 and 0.066 and 0.035 and 0.139 and 0.001 and 0.068 | pan caspase activation [2]: activates pan caspases after 5 hrs | Binding to blood group antigens by ELISA: Lewis ^y [3]: 0.057 OD 405 nm | C170 ELISA (OD 405 nm) (C170 cells): 0.301 OD 405 nm | Comments on staining ([4]; Normal Tissues: Brain): Small number of scattered glial cells | Immunoreactivity with frozen tissue sections (binding) ([4]; Normal Tissues: Brain): 1/2 | Comments on staining ([4]; Normal Tissues: Breast): Epithelial cells scattered moderate | Immunoreactivity with frozen tissue sections (binding) ([4]; Normal Tissues: Breast): 2/3 | Comments on staining ([4]; Normal Tissues: Fallopian tube): Epithelial cells scattered moderate | Immunoreactivity with frozen tissue sections (binding) ([4]; Normal Tissues: Fallopian tube): 2/3 | Immunoreactivity with frozen tissue sections (binding) ([4]; Normal Tissues: Heart): 0 | Immunoreactivity with frozen tissue sections (binding) ([4]; Normal Tissues: Kidney): 0 | Comments on staining [4, 5]: Epithelial cells, mucous, diffuse | Immunoreactivity with frozen tissue sections (binding) [4, 5]: 3/3 | Comments on staining ([4]; Normal Tissues: Lung): Alveolar lining cells one donor | Immunoreactivity with frozen tissue sections (binding) ([4]; Normal Tissues: Lung): 2/3 | Comments on staining ([4]; Normal Tissues: Ovary): Follicular cells scattered and mild | Immunoreactivity with frozen tissue sections (binding) ([4]; Normal Tissues: Ovary): 3/3 | Comments on staining [4, 6]: Moderate | Immunoreactivity with frozen tissue sections (binding) [4, 6]: 3/3 | Immunoreactivity with frozen tissue sections (binding) ([4]; Normal Tissues: Placenta): 0 | Comments on staining ([4]; Normal Tissues: Prostate): Epithelial cells scatted and moderate | Immunoreactivity with frozen tissue sections (binding) ([4]; Normal Tissues: Prostate): 3/3 | Comments on staining ([4]; Normal Tissues: Skin): Diffuse minimal staining | Immunoreactivity with frozen tissue sections (binding) ([4]; Normal Tissues: Skin): 2/3 | Comments on staining [4, 7]: Mucus superficial, diffuse minimal | Immunoreactivity with frozen tissue sections (binding) [4, 7]: 3/3 | Immunoreactivity with frozen tissue sections (binding) ([4]; Normal Tissues: Spleen): 0 | Comments on staining ([4]; Normal Tissues: Stomach): Mucus superficial, diffuse mild | Immunoreactivity with frozen tissue sections (binding) ([4]; Normal Tissues: Stomach): 2/3 | Comments on staining ([4]; Normal Tissues: Thymus): Epithelial cells, Hassall's corpuscle, | Immunoreactivity with frozen tissue sections (binding) ([4]; Normal Tissues: Thymus): 3/3 | Comments on staining ([4]; Normal Tissues: Tonsil): Keratinised epithelium, membrane, | Immunoreactivity with frozen tissue sections (binding) ([4]; Normal Tissues: Tonsil): 3/3 | Comments on staining [4, 8]: Epithelial cells transitional | Immunoreactivity with frozen tissue sections (binding) [4, 8]: 2/2 | Comments on staining ([4]; Normal Tissues: Uterine cervix): Epithelial cells, membrane, diffuse | Immunoreactivity with frozen tissue sections (binding) ([4]; Normal Tissues: Uterine cervix): 3/3 | % inhibition of cell growth as measured by MTS staining (CaCO2): 20% | % inhibition of cell growth as measured by MTS staining (C168): 55% | % inhibition of cell growth as measured by MTS staining (C170; 30 μg/ml): 70% | inhibition of growth of adherent cells (MTS) (C170; [9]): inhibited growth | % inhibition of cell growth as measured by MTS staining (Colo205; 30 μg/ml): 55% | inhibition of growth of adherent cells (MTS) (Colo205; [9]): inhibited growth | % inhibition of cell growth as measured by MTS staining (HT-29): 5% | % inhibition of cell growth as measured by MTS staining (C146): 65%
